In article PMC3091828 (Biochemistry, 2011):

Target: MBP-parkin (UniProt O60260 1-465)
Test: fluorescence polarisation

MBP-parkin, sequence (O60260 whole entry): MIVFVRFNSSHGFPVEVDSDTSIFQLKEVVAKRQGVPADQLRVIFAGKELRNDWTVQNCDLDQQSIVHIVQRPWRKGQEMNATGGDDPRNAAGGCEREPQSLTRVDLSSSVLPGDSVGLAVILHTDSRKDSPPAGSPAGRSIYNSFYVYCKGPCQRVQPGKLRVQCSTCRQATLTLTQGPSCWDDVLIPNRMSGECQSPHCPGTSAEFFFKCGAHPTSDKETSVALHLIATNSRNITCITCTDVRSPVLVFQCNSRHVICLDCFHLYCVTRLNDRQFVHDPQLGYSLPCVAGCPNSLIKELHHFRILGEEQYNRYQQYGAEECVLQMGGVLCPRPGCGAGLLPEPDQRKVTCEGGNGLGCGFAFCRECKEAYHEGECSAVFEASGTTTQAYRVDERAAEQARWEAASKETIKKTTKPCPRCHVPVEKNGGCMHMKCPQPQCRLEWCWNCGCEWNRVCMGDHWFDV

Kd | Binder
15.5 µM | CL-arrestin-1-F79C, bimane-labeled (natural protein, monobromobimane label on the unique cysteine (F79C)) MKANKPAPNHVIFKKISRDKSVTIYLGKRDYIDHVERVEPVDGVVLVDPELVKGKRVYVSLTAAFRYGQEDIDVMGLSCRRDLYFSQVQVFPPVGASGATTRLQESLIKKLGANTYPFLLTFPDYLPSSVMLQPAPQDVGKSAGVDFEIKAFATHSTDVEEDKIPKKSSVRLLIRKVQHAPRDMGPQPRAEASWQFFMSDKPLRLAVSLSKEIYYHGEPIPVTVAVTNSTEKTVKKIKVLVEQVTNVVLYSSDYYIKTVAAEEAQEKVPPNSSLTKTLTLVPLLANNRERRGIALDGKIKHEDTNLASSTIIKEGIDKTVMGILVSYQIKVKLTVSGLLGELTSSEVATEVPFRLMHPQPEDPDTAKESFQDENFVFEEFARQNLKDAGEYKEEKTDQEAAMDE
3.36 µM | CL-arrestin-3-F88C, bimane-labeled (natural protein, UniProt P32120-2 1-409, looked up, monobromobimane label on the unique cysteine (F88C)) MGEKPGTRVFKKSSPNSKLTVYLGKRDFVDHLDKVDPVDGVVLVDPDYLKDRKVFVTLTVAFRYGREDLDVLGLSFRKDLFIANYQACPPTPNPPRPPTRLQERLLRKLGQHAHPFFFTIPQNLPSSVTLQPGPEDTGKALGVDFEIRAFVAKSLEEKSHKRNSVRLVIRKVQFAPEKPGPQPSAETTRHFLMSDRSLHLEASLDKELYYHGEPLNVNVHVTNNSTKTVKKIKVSVRQYADIVLFSTAQYKVPVAQVEQDDQVSPSSTFSKVYTITPLLSNNREKRGLALDGKLKHEDTNLASSTIVKEGANKEVLGILVSYRVKVKLVVSRGGDVSVELPFVLMHPKPHDHIALPRPQSAAPETDAPVDTNLIEFETNYATDDDIVFEDFARLRLKGLKDEDYDDQFS
